assay: soluble on expression in E. coli; label from the status in PepcDB or PDB records

Sequence | soluble on expression in E. coli
MTMYQTINEWVDYIDKGCSVLHLDFNVFKKELSLDIKVFEDEGEYTHKISFQNVASAYYSADVGDMRLEKIDPEEYNWQVFEMSYHPEGIGNLSNSIIPEYQSNANFLIDMNRMLIAIEAETVRFDDQSFYAYQLNTKLEHHHHHH | soluble
MGSDKIHHHHHHAPNEEGISVQKMTGFPEGEPGFSLGVSACYAGIYQGELLIAGGCNFPETPAAEGGKKKFYQGIYAADASADSVFVWRKVGQLPVAAAYGVSVSTPRGIVCVGGSNENGSLSTVYRLSLSDDKQAVIVDTLPSLPCTMDNMSGSVVDYTLFVAGGNVNGKPSNGLYCLNLGNPETGWQQLPDFPGAPRVQPVCVGQRKENETLLYLWGGFSGAFDGRSATLSTDGYCYSPSLQQWQPVSTPIGSDSVPVALGGGAGIALTDSLILCTGGVNKDIFLSALQREEMMKAAVTGGNQAAVDSLKSEAKTYMLHPAEWYRFNDRILIYNTRRDKWEEAVRSQDVARAGAALTTGQGQTFFNINGELKPGIRTPEIAKIMID | not soluble
MGHHHHHHGGHMSLETKHSNRARSRKGALRGAVLAGALMALVGCQTSPAATTSSNTGGTNMQLQLTQEWDKTFPLSAKVEHRKVTFANRYGITLAADLYLPKNRGGDRLPAIVIGGPFGAVKEQSSGLYAQTMAERGFVTLAFDPSYTGESGGQPRNVASPDINTEDFSAAVDFISLLPEVNRERIGVIGICGWGGMALNAVAVDKRVKAVVTSTMYDMTRVMSKGYNDSVTLEQRTRTLEQLGQQRWKDAESGTPAYQPPYNELKGGEAQFLVDYHDYYMTPRGYHPRAVNSGNAWTMTTPLSFMNMPILTYIKEISPRPILLIHGERAHSRYFSETAYAAAAEPKELLIVPGASHVDLYDRLDRIPFDRIAGFFDEHLEGGS | soluble
SMQEEDTFRELRIFLRNVTHRLAIDKRFRVFTKPVDPDEVPDYVTVIKQPMDLSSVISKIDLHKYLTVKDYLRDIDLICSNALEYNPDRDPGDRLIRHRACALRDTAYAIIKEELDEDFEQLCEEIQESR | soluble
MLCCPDPRRRGQHNNRRRNAMPKLHESRIHDLRPTQLTVGMIEVQAKKTHLAAMAPADQQAFMQAHPIPAVLGPGGQLYITDHHHLGRAALDAGVITGYFMVEADLSQHSLDDFWKAMDQNLWVHPLDEHGVRHYYASIPKHLEKLVDDPYRSLAGYVRDAGGYDKTPTAFAEFVWADFFRRSIPIEDLLADFQAAVHAALPLAKSKFAKALPGYNGKLEHHHHHH | not soluble
MSMIHKFSMNGYNIVLDVNGGAVHVLDDVAYDLLDFYKEKSKEEILEILKSKYQEEKINEAYEEILNLEKEGLLYTEDTYQYHPSFVHREPVVKALCLNVAHDCNLKCKYCFAAQGDFGGEKELMSFEVGKAAIDYLIANSGSRKNLEIDFFGGEPLMNFEVVKQLVDYGRSVEKDYNKNIRFTITTNGVLLNDEIIDYINENMHNVVLSLDGRKEVNDNMRPTLNDKGSYDITLPRFKKLVEKRSKDKYYYIRGTFTRDNLDFSKDVMHFADLGFKLTSVEPVVGDESNPYALREEDLPKIFEEYEKFAVEYADRQLQGDGFKFFHFMIDLNQGPCVIKRITGCGAGNEYLSVTPNGDIYPCHQFVGNEEFKMANIFDEEIVLPENLKNMFREAHVYTKEECKQCWNKFYCSGGCHANAINFNSDISKPYELGCEMQRKRTECSIMIQAKLMLEGATN | not soluble
MKISIVIVTYNRIPALCELLESISRQTLMPYEIIIVNDAGESVVPVKALYPELPIAVINLEKNSGHVAARNAGVKEASGDCIMLCDDDDFFTPGHIEKMAKEIETADFVHSDAEIVSFEEKNGTRYPVSRKLFAYTADYEDMRVFSTYVPSGSMYRRFLHDEIGYFDADVHNYWDWDFYLRAAKDYRVKRVPCASVIYAFSDAGDNQSADLGAKRKQYLDRLSEKHGLGELPTKNFAVLLEEPEMKRREAKSEMVWDGEPVYSRLHRSLEHHHHHH | not soluble
MSLERIRDLTSVQGVRQNSLIGYGLVVGLDGTGDQTTQTPFTTQTLNNMLSQLGITVPTGTNMQLKNVAAVMVTASLPPFGRQGQTIDVVVSSMGNAKSLRGGTLLMTPLKGVDSQVYALAQGNILVGGAGASAGGSSVQVNQLNGGRITNGAVIERELPSQFGVGNTLNLQLNDEDFSMAQQIADTINRVRGYGSATALDARTIQVRVPSGNSSQVRFLADIQNMQVNVTPQDAKVVINSRTGSVVMNREVTLDSCAIAQGNLSVTVNRQANVSQPDTPFGGGQTVVTPQTQIDLRQSGGSLQSVRSSASLNNVVRALNALGATPMDLMSILQSMQSAGCLRAKLEIIEGHHHHHH | soluble
MHVIDLSYFVKIYRSKNKHISVNFLRHLHRAGDLHLSGTTRCIYEDVIMKKCLTLLIATVLSGISLTAYAAQPMSNLDSGQLRPAGTVSATGASNLSDLEDKLAEKAREQGAKGYVINSAGGNDQMFGTATIYK | soluble
MQQRRPVRRALLSVSDKAGIVEFAQALSARGVELLSTGGTARLLAEKGLPVTEVSDYTGFPEMMDGRVKTLHPKVHGGILGRRGQDDAIMEEHQIQPIDMVVVNLYPFAQTVAREGCSLEDAVENIDIGGPTMVRSAAKNHKDVAIVVKSSDYDAIIKEMDDNEGSLTLATRFDLAIKAFEHTAAYDSMIANYFGSMVPAYHGESKEAAGRFPRTLNLNFIKKLDMRYGENSHQQAAFYIEENVKEASVATATQVQGKALSYNNIADTDAALECVKEFAEPACVIVKHANPCGVAIGNSILDAYDRAYKTDPTSAFGGIIAFNRELDAETAQAIISRQFVEVIIAPSASEEALKITAAKQNVRVLTCGQWGERVPGLDFKRVNGGLLVQDRDLGMVGAEELRVVTKRQPSEQELRDALFCWKVAKFVKSNAIVYAKNNMTIGIGAGQMSRVYSAKIAGIKAADEGLEVKGSSMASDAFFPFRDGIDAAAAAGVTCVIQPGGSIRDDEVIAAADEHGIAMLFTDMRHFRH | soluble
MAGDPMKLQKSNHTILLVLEKGEDIVECITTFADDQDLTFTSVSGIGACDDVVLKFFNLTTKQYEEKHITEPLELTSLLGNISRLDNGHFAHLHATFGTQSYETFSGHLAKAIVSATAEIILTVTDLDIQRSFKDAVGLNLLDPQLEHHHHHH | soluble
MGSDKIHHHHHHMDNKELKAFCNLIGLNCVGVAGVDKYDNLEKILKDRQQKGYLTGMEEPIIENRINPRHIMKDANSIIVCAFPYHINRQEKNKNSNLSKYCHGKDYHIVVKDFLQQICDYISKTVTDFKYKLFADNGPLVDRYLAYLSGIGYFGINNNIITDEYGSYVFIGYIVNNYKFEEDKPLEKSCFKCGKCVKYCPGNAILGNYDMNPKKCLSYITQKKGDLSEKEKVVLKNGKKVFGCDICQEVCPHNVEIPTTHILEFKENIIDYLDYDEIQNISNKEFKRRYGDRAFSWRGRNIIKRNMEIILDKYDD | not soluble
NQLLGMHQIEKEMTQYFGIQRCIVVAGDSDIQKKVLSDFGDVLTNTLNLLLPNGENTIAVMGGTTMAMVAENMGSLETEKRHNLFVPARGGIGEAVSVQANSISAVMANKTGGNYRALYVPEQLSRETYNSLLQEPSIQEVLTLISHANCVVHSIGRALHMAARRKMSDDEMVMLKQKNAVAESFGYFFDEEGKVVYKIPRIGLQLKNLQEIPYVVAIAGGKTKAKAIRAYMKNAPKQTWLITDEAAANEILKGVTL | not soluble
AEWSGEYISPYAEHGKKSEQVKKITVSIPLKVLKILTDERTRRKVNNLRHATNSELLCEAFLHAFTGQPLPDDADLRKERSDEIPEAAKEIMREMGINPETWEY | soluble
MSLATFEKQKIEQAIGSIQGALGVLEKGQMTEIMPPKRIQALPIQQNVDTPEAINAFASMITEYSEMTKISDGPAVKMEEAEDGFILSIPSELLFESGSATITNKEGILFLKRTALEINKLSNDMHIKVIGHTDNDRLRPTATYKDNWELSIARGVNVAKMLLEERVNPARISAGGNGEFDPVASNATPEGKAKNRRVDLYFFSVSKNEEEIKKSQKNSEGHHHHHH | soluble
MLTLITFPKAFGLYSASPFCVKAAYLLTLAGEPWQRQDQTDPRRMPHGKLPVLRTPERLVPDSDGIRAWLESRGAEFDRGLTDAQRASARALIHMAEDHFYPYLVLDRWGNDAVWAIIRDTFFGEIPRLLRKPVTNRIRAQVLRGLDFQGMARFSEAERRDRVERSFEAVTALLWQKPFLFGDAPTGADLSVAPMLAAMRATPVATPLQRRVAGDRVLSDYIDRMDATLPLT | not soluble
HSEEAAYYAVEIGRMFDLGDEKLEKLYWAGLLHDIGKIYVPQVVLNKTSKLDEREFELIKIHPVRGYELVKEIEGFEDVAIWIRHHHERWDGKGYPDGLKGEEIPFEARVLCVADSYQAM | soluble
SKQNPLKRKRNDEITEEKVVLLMAMHKEDDEHQHTKPSPPSWEILCLVGPYMDPESLAVASCVSTTWSKCFSSEDLWKSLPATRHSIFAKAITKEGAKPAWLSYKRLISEAESAAKRRRNNQPAEPKISLSDLVFIVHVSAGSKEAVVVKQGKDLVFGSNERFQIEADVRDSGFTADMKDVSMSWNVVLRNYERMFLMSETVIKSLDSMIGWFTDELPGTKNRYCDGSNLVGEVKPSFNEDVLDKVVFAIADSRNWKSLFVDDVLRYLQCFLVD | soluble
MGSDKIHHHHHHMKRCPNCGCRGQAAFPEHVPGQVQYGPRLHAFTTLLNVGHFIPLERVTQLTDALFGASISDGTVALNINLASERLEPFEDDLKTGLRQQAVLHADETGAKVNGKLNWFHVACFARGTLYTLHEKRGYAALEAAGVLTDFTGVVVHDAWSTYFRLPGEHALCNAHLLRELRKLDEHDRQPWAGELRRALQQVYHAQKTGTLTDEQRAVFYTRFDELVLAGLEANPVQEPVPKRRGKPKQLPGRNLALRCQQHRAAMLLFLERADVPFDNNQAERDIRMACVKRKVSGGFRSEVGGQAFCRVRSFISTLQKQGLSVWTGLVDVFRGVLPKLDFSC | not soluble
PSDTVTLFMSGDGGWRDLDKVVAGDMAKMGYPVVGIDVLRYYWEHKTPEQTAADLTDLMNHYRQKWGTKRFILAGYSFGADVMPAIYNRLAADDQNRVDAIILLAFAR | not soluble
LNLSGLSLSCEYQPFVCPHTKHIHGYEALARFYLGQGQAIAPNLVFEQLHENSNALAAVEFQAKTFQLKHAPARQSLFVNVDPHAANGVHTQKLLDLLSSHPQLTVEIIENTCISDAELANQLFHQFKTANLNVALDDIGAPHSMLSVDLMMNVDYLKFDRHWLNLVAEPHGIALLSALIEFGKRTGKQCILEGIETEAQLQLARELNVDLVQGFLFKP | not soluble
MKKSRYTETQIVKILKEVEAGRLVKEICREYGISDATYYNWKAKYGGMESSDIKRLKDLEEENRRLKQMYAELSLDHKILKDIVEKKLLEHHHHHH | not soluble
MGKKHKKHKSDKHLYEEYVEKPLKLVLKVGGNEVTELSTGSSGHDSSLFEDKNDHDKHKDRKRKKRKKGEKQIPGEEKGRKRRRVKEDKKKRDRDRVENEAEKDLQCHAPVRLDLPPEKPLTSSLAKQEEVEQTPLQEALNQLMRQLQRKDPSAFFSFPVTDFIAPGYSMIIKHPMDFSTMKEKIKNNDYQSIEELKDNFKLMCTNAMIYNKPETIYYKAAKKLLHSGMKILSQERIQSLKQSIDFMADLQKTRKQKDGTDTSQSGEDGGCWQREREDSGDAEAHAFKSPSKENKKKDKDMLEDKFKSNNLEREQEQLDRIVKESGGKLTRRLVNSQCEFERRKPDGTTTLGLLHPVDPIVGEPGYCPVRLGMTTGRLQSGVNTLQGFKEDKRNKVTPVLYLNYGPYSSYAPHYDSTFANISKDDSDLIYSTYGEDSDLPSDFSIHEFLATCQDYPYVMADSLLDVLTKGGHSRTLQEMEMSLPEDEGHTRTLDTAKEMEITEVEPPGRLDSSTQDRLIALKAVTNFGVPVEVFDSEEAEIFQKKLDETTRLLRELQEAQNERLSTRPPPNMICLLGPSYREMHLAEQVTNNLKELAQQVTPGDIVSTYGVRKAMGISIPSPVMENNFVDLTEDTEEPKKTDVAECGPGGS | soluble
